The subject of this data set is T1, CC1=CC(=O)CC(C)(C)[C@@]1(O)/C=C/C(C)=C\C(=O)O[C@@H]1O[C@H](CO)[C@@H](O)[C@H](O)[C@H]1O.
T1 construct: recombinant from E. coli, IMAC purified; N-terminal thioredoxin and His6 tags cut off with enterokinase
Kind of data set: glucose release by peroxidase/glucose oxidase assay, Michaelis-Menten fit. In kind it is biochemical, Oryza sativa. The settings on record: 50 mM sodium acetate pH 5, 30 °C. The source says:
glucose release by peroxidase/glucose oxidase assay, Michaelis-Menten fit on Os4BGlu13

For orientation: Km means the concentration of substrate that gives half-maximal velocity. As a reminder, the kcat is the maximal rate divided by the concentration of active sites. For orientation: kcat/Km means the turnover number divided by the Michaelis constant.

Sequence of Os4BGlu13 (Oryza sativa Japonica Group) (chain, as listed by the source): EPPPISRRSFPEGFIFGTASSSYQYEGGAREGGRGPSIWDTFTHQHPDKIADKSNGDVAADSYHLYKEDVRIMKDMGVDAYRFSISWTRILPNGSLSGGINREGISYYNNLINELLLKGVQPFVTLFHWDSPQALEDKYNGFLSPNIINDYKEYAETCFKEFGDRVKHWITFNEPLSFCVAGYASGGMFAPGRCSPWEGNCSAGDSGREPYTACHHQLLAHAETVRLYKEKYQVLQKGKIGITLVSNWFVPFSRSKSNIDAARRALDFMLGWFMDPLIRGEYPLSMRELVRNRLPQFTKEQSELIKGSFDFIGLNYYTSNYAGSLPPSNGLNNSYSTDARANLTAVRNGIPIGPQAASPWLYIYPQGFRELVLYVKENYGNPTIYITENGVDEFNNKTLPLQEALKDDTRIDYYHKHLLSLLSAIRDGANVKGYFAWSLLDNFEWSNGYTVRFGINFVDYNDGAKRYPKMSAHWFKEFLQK

For the substance Os4BGlu13 (Oryza sativa Japonica Group), the Km stood at 1660 ± 90 µM, the catalytic constant (kcat) is 20.6 ± 0.5 s⁻¹ and the kcat/Km turned out to be 12400 M⁻¹ s⁻¹.

The values are drawn from article PMC8303963, “Action of Multiple Rice β-Glucosidases on Abscisic Acid Glucose Ester” (International Journal of Molecular Sciences, 2021).
